{"source": "paper PMC10602967", "about": "“Modulatory role of RNA helicases in MBNL-dependent alternative splicing regulation”", "binders": {"B1": {"name": "RNA-ctrl (ssRNA)", "RNA": "UUUUUUUUGUCUGGUCCCUCGUUUUUUUU"}, "B2": {"name": "RNA-ss(UGCU)4 (ssRNA)", "RNA": "UUUUUUUUGCUUGCUUGCUUGCUUUUUUUU"}}, "key": {"[1]": {"biological_target": "T1, rDDX5 (UniProt P17844 1-614)", "T1 sequence (P17844 whole entry)": "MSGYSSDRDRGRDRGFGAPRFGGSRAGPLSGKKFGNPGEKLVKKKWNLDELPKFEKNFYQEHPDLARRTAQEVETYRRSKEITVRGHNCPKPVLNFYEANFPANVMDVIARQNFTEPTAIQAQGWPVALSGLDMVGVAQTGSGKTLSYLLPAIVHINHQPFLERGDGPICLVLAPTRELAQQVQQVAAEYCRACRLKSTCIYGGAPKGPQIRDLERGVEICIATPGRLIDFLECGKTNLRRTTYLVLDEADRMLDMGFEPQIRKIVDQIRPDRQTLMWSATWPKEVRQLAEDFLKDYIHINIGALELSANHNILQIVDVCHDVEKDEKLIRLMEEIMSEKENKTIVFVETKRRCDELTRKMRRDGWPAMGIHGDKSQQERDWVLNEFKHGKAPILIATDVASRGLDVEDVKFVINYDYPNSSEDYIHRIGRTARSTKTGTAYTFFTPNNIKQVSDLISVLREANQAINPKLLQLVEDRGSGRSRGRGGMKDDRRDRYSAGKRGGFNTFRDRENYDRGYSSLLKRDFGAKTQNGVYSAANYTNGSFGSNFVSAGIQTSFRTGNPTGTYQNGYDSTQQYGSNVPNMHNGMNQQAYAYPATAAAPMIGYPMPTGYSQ", "test": "EMSA; slightly lower preference than ss(UGCU)4; no defined complex band; Kd only in figure; EMSA: 15 nM RNA, 50 mM NaCl, 50 mM KCl, 50 mM Tris-HCl, 1 mM MgCl2 (pH not stated), 37 C 15 min, 10 ul, 6% native PA gel; Kd by one-site fit with Bmax = 100", "conditions": "protein: commercial; label: 5'-biotin; 3'-Cyanine 5; single-stranded"}, "[2]": {"biological_target": "T1, rDDX5", "test": "EMSA; slightly preferred over RNA-ctrl; no defined complex band; Kd only in figure; EMSA: 15 nM RNA, 50 mM NaCl, 50 mM KCl, 50 mM Tris-HCl, 1 mM MgCl2 (pH not stated), 37 C 15 min, 10 ul, 6% native PA gel; Kd by one-site fit with Bmax = 100", "conditions": "protein: commercial; label: 5'-biotin; 3'-Cyanine 5; single-stranded"}}}
{"binder": "B1", "values": [{"measurement": "binding result", "setting": "[1]", "value": "binds"}]}
{"binder": "B2", "values": [{"measurement": "binding result", "setting": "[2]", "value": "binds"}]}
